These results are taken from patent US20210403506A1 (XDCEXPLORER SHANGHAI, published 2021).

T1: human Chemokine like receptor 1 (human, UniProt Q99788 1-373)
T1 sequence (looked up): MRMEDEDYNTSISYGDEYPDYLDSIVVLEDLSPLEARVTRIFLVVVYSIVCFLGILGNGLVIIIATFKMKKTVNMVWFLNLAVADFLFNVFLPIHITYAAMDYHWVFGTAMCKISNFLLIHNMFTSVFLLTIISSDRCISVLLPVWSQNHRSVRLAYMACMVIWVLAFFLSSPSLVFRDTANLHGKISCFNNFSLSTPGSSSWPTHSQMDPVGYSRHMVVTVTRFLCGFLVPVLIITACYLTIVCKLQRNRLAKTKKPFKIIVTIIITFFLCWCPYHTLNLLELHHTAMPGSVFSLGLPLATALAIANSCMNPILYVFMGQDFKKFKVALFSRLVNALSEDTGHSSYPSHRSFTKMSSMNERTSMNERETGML

B1: YW-133 (peptide)
peptide: {Palmitoyl-PEG8}-GG[dY]F[NMeL]P[dS]QF[dA][Tic]S-OH
SMILES: CCCCCCCCCCCCCCCC(=O)NCCOCCOCCOCCOCCOCCOCCOCCOCCC(=O)NCC(=O)NCC(=O)N[C@H](Cc1ccc(O)cc1)C(=O)N[C@@H](Cc1ccccc1)C(=O)N(C)[C@@H](CC(C)C)C(=O)N1CCC[C@H]1C(=O)N[C@H](CO)C(=O)N[C@@H](CCC(N)=O)C(=O)N[C@@H](Cc1ccccc1)C(=O)N[C@H](C)C(=O)N1Cc2ccccc2C[C@H]1C(=O)N[C@@H](CO)C(=O)O
B2: YW-148 (peptide)
peptide: [dNMeY]F[NMeL][Thz][dS]Q[2Nal][dA][Tic]S-OH
modifications: N-terminus assumed
SMILES: CN[C@H](Cc1ccc(O)cc1)C(=O)N[C@@H](Cc1ccccc1)C(=O)N(C)[C@@H](CC(C)C)C(=O)N1CSC[C@H]1C(=O)N[C@H](CO)C(=O)N[C@@H](CCC(N)=O)C(=O)N[C@@H](Cc1ccc2ccccc2c1)C(=O)N[C@H](C)C(=O)N1Cc2ccccc2C[C@H]1C(=O)N[C@@H](CO)C(=O)O
B3: YW-153 (peptide)
peptide: [dY]F[NMeL]P[dS]QF[dA][dTi1c]S-OH
modifications: reading uncertain; also: printed as (D-Tyr)-Phe-(NMe-Leu)-Pro-(D-Ser)-Gln-Phe-(D-Ala)-(D-Ti1c)-Ser
B4: YW-162 (peptide)
peptide: [dNMeY]F[NMeL]P[dS]Q[1Nal][dA][Tic][NMeS]-OH
modifications: N-terminus assumed
SMILES: CN[C@H](Cc1ccc(O)cc1)C(=O)N[C@@H](Cc1ccccc1)C(=O)N(C)[C@@H](CC(C)C)C(=O)N1CCC[C@H]1C(=O)N[C@H](CO)C(=O)N[C@@H](CCC(N)=O)C(=O)N[C@@H](Cc1cccc2ccccc12)C(=O)N[C@H](C)C(=O)N1Cc2ccccc2C[C@H]1C(=O)N(C)[C@@H](CO)C(=O)O
B5: YW-125 (peptide)
peptide: [dNMeY]F[NMeL][Thz][dS]Q[2Nal][dA][Tic][NMeS]-OH
modifications: N-terminus assumed
SMILES: CN[C@H](Cc1ccc(O)cc1)C(=O)N[C@@H](Cc1ccccc1)C(=O)N(C)[C@@H](CC(C)C)C(=O)N1CSC[C@H]1C(=O)N[C@H](CO)C(=O)N[C@@H](CCC(N)=O)C(=O)N[C@@H](Cc1ccc2ccccc2c1)C(=O)N[C@H](C)C(=O)N1Cc2ccccc2C[C@H]1C(=O)N(C)[C@@H](CO)C(=O)O
B6: YW-142 (peptide)
peptide: [dNMeY]F[NMeL][Thz][dS]Q[1Nal][dA][Tic][NMeS]-OH
modifications: N-terminus assumed
SMILES: CN[C@H](Cc1ccc(O)cc1)C(=O)N[C@@H](Cc1ccccc1)C(=O)N(C)[C@@H](CC(C)C)C(=O)N1CSC[C@H]1C(=O)N[C@H](CO)C(=O)N[C@@H](CCC(N)=O)C(=O)N[C@@H](Cc1cccc2ccccc12)C(=O)N[C@H](C)C(=O)N1Cc2ccccc2C[C@H]1C(=O)N(C)[C@@H](CO)C(=O)O
B7: YW-146 (peptide)
peptide: [dNMeY]F[NMeL]P[dS]Q[2Nal][dA][Tic][NMeS]-OH
modifications: N-terminus assumed
SMILES: CN[C@H](Cc1ccc(O)cc1)C(=O)N[C@@H](Cc1ccccc1)C(=O)N(C)[C@@H](CC(C)C)C(=O)N1CCC[C@H]1C(=O)N[C@H](CO)C(=O)N[C@@H](CCC(N)=O)C(=O)N[C@@H](Cc1ccc2ccccc2c1)C(=O)N[C@H](C)C(=O)N1Cc2ccccc2C[C@H]1C(=O)N(C)[C@@H](CO)C(=O)O
B8: YW-161 (peptide)
peptide: Hydrocinnamoyl-[dY]F[NMeL]P[dS]QF[dA][Tic]S-NH2
SMILES: CC(C)C[C@@H](C(=O)N1CCC[C@H]1C(=O)N[C@H](CO)C(=O)N[C@@H](CCC(N)=O)C(=O)N[C@@H](Cc1ccccc1)C(=O)N[C@H](C)C(=O)N1Cc2ccccc2C[C@H]1C(=O)N[C@@H](CO)C(N)=O)N(C)C(=O)[C@H](Cc1ccccc1)NC(=O)[C@@H](Cc1ccc(O)cc1)NC(=O)CCc1ccccc1
B9: YW-160 (peptide)
peptide: [dY]FLP[dS]QF[dA][Tic]T-OH
modifications: N-terminus assumed
SMILES: CC(C)C[C@H](NC(=O)[C@H](Cc1ccccc1)NC(=O)[C@H](N)Cc1ccc(O)cc1)C(=O)N1CCC[C@H]1C(=O)N[C@H](CO)C(=O)N[C@@H](CCC(N)=O)C(=O)N[C@@H](Cc1ccccc1)C(=O)N[C@H](C)C(=O)N1Cc2ccccc2C[C@H]1C(=O)N[C@H](C(=O)O)[C@@H](C)O
B10: YW-91 (peptide)
peptide: [dY]FLP[dS]QF[dA][Pro(5R-Ph)]S-OH
modifications: N-terminus assumed
SMILES: CC(C)C[C@H](NC(=O)[C@H](Cc1ccccc1)NC(=O)[C@H](N)Cc1ccc(O)cc1)C(=O)N1CCC[C@H]1C(=O)N[C@H](CO)C(=O)N[C@@H](CCC(N)=O)C(=O)N[C@@H](Cc1ccccc1)C(=O)N[C@H](C)C(=O)N1[C@@H](c2ccccc2)CC[C@H]1C(=O)N[C@@H](CO)C(=O)O
B11: YW-132 (peptide)
peptide: [dY]FLP[dS]QF[dA][Tic]S-OH
modifications: not fully specified (N-terminus); printed as 3,5-dihydroxyphenylacetyl-(D-Tyr)-Phe-Leu-Pro-(D-Ser)-Gln-Phe-(D-Ala)-Tic-Ser-OH
B12: YW-134 (peptide)
peptide: {Palmitoyl-PEG8}-[βAla][βAla][dY]F[NMeL]P[dS]QF[dA][Tic]S-OH
SMILES: CCCCCCCCCCCCCCCC(=O)NCCOCCOCCOCCOCCOCCOCCOCCOCCC(=O)NCCC(=O)NCCC(=O)N[C@H](Cc1ccc(O)cc1)C(=O)N[C@@H](Cc1ccccc1)C(=O)N(C)[C@@H](CC(C)C)C(=O)N1CCC[C@H]1C(=O)N[C@H](CO)C(=O)N[C@@H](CCC(N)=O)C(=O)N[C@@H](Cc1ccccc1)C(=O)N[C@H](C)C(=O)N1Cc2ccccc2C[C@H]1C(=O)N[C@@H](CO)C(=O)O
B13: YW-98 (peptide)
peptide: [dY]F[NMeL]P[dS]QF[dA][Tic]S-OH
modifications: N-terminus assumed
SMILES: CC(C)C[C@@H](C(=O)N1CCC[C@H]1C(=O)N[C@H](CO)C(=O)N[C@@H](CCC(N)=O)C(=O)N[C@@H](Cc1ccccc1)C(=O)N[C@H](C)C(=O)N1Cc2ccccc2C[C@H]1C(=O)N[C@@H](CO)C(=O)O)N(C)C(=O)[C@H](Cc1ccccc1)NC(=O)[C@H](N)Cc1ccc(O)cc1

Square brackets hold non-standard residues; d marks the D form. Primed or numbered codes have the meaning given here. Ends that are not written are not given here. * marks the point of attachment. azaTic = 3,4-dihydropyridazine-2(H)-formic acid; Pro(5R-Ph) = O=C(O)[C@@H]1CC[C@H](c2ccccc2)N1; Pro(4Ph)″ = 4-phenylproline (Pro(4-phenyl)); Bip = N[C@@H](Cc1ccc(-c2ccccc2)cc1)C(=O)O; PEG8 = NCCOCCOCCOCCOCCOCCOCCOCCOCCC(=O)O; Gly(Nα-CH2CH2CONH2) = NC(=O)CCNCC(=O)O; 1Nal = N[C@@H](Cc1cccc2ccccc12)C(=O)O; 2Nal = N[C@@H](Cc1ccc2ccccc2c1)C(=O)O; dNMeY = CN[C@H](Cc1ccc(O)cc1)C(=O)O; Hydrocinnamoyl = O=C(CCc1ccccc1)*; Palmitoyl = CCCCCCCCCCCCCCCC(=O)*; NMeQ = CN[C@@H](CCC(N)=O)C(=O)O; Tic = O=C(O)[C@@H]1Cc2ccccc2CN1; NMeL = CN[C@@H](CC(C)C)C(=O)O; NMeV = CN[C@H](C(=O)O)C(C)C; NMeS = CN[C@@H](CO)C(=O)O; dNMeS = CN[C@H](CO)C(=O)O; Thz = O=C(O)[C@@H]1CSCN1; dNMeA = CN[C@H](C)C(=O)O; dTi1c = not defined here; Nleu = CC(C)CNCC(=O)O; βAla = NCCC(=O)O

In the experiment the target is T1, human Chemokine like receptor 1. Put plainly: cell-based or functional assay.
On to B1, for which the “EC50 (µM), activation of Tango CMKLR1-bla U2OS cells” value (“EC50 (µM), activation” below) stood at 0.0007 µM.
With [dY]FLP[dS]QF[dNMeA][Tic]S-OH [YW-109], the “EC50 (µM), activation” value was 11 µM.
Regarding B2, the “EC50 (µM), activation” value is 0.0005 µM.
The same measure for [dY]F[NMeV]P[dS]QF[dA][Tic]S-OH [YW-99]: 12 µM.
[dY]FLP[dNMeS]QF[dA][Tic]S-OH [YW-106]: the “EC50 (µM), activation” value worked out at 24 µM.
The same measure for B3: 0.0085 µM; for [dY]FLP[dS]QF[dA][Pro(4Ph)″]S-OH [YW-92]: 1 µM; for B4: 0.0026 µM.
As for {3,5‑dihydroxyphenylacetyl}-[dY]FLP[dS]QF[dA][Tic]S [YW-131], the figure is 0.0029 µM; as for B5, 0.0006 µM.
As for [dY]FLP[dS]QF[dA][Ala(dip)]S-OH [YW-94], the figure is 8.7 µM; as for B6, 0.0009 µM.
As to B7, the “EC50 (µM), activation” value was found to be 0.0014 µM.
As for B8, the figure is 0.003 µM; as for [dY]F[Nleu]P[dS]QF[dA][Tic]S-OH [YW-102], 0.31 µM.
In the case of [dY]FLP[dS][Gly(Nα-CH2CH2CONH2)]F[dA][Tic]S-OH [YW-108], the “EC50 (µM), activation” value was greater than 50 µM.
As for B9, the figure is 0.285 µM.
On to B10, for which the “EC50 (µM), activation” value stood at 0.46 µM.
As for [dY]FLP[dS]QF[dA][Bip]S-OH [YW-95], the figure is 30 µM; as for B11, 0.0055 µM; as for [dY]FLP[dS][NMeQ]F[dA][Tic]S-OH [YW-107], greater than 50 µM.
As for B12, the figure is 0.0007 µM; as for B13, 0.003 µM.
As to [dY]FLP[dS]QF[dA][S‑Pip]S-OH [YW-90], the “EC50 (µM), activation” value was greater than 50 µM.
Consider [dY]FLP[dS]Q[dS][dA][azaTic]S-OH [YW-147], for which the “EC50 (µM), activation” value was greater than 50 µM.
